Test results published in patent EP3470429A1 (Numab Innovation AG, dated 2019).
Changes are numbered by the printed parent chain. Values belong to the binder of their own block, whether it stands above or below them.

Legend:
[1] = molecular target: T1, human PD-L1 expressed on cells (human, UniProt Q9NZQ7 19-290); test: cell-based or functional assay
[2] = molecular target: T2, mouse serum albumin (mouse, UniProt P07724 25-608); test: assay not given
T2 construct: also called MSA

[3] = molecular target: T3, human serum albumin (human, UniProt P02768 25-609); test: SPR Biacore T200, SA amine-coupled to CM5 chip, pH 5.5
T3 construct: also called HSA; human SA

[4] = molecular target: T4, recombinant human PDL1 extracellular domain (human, UniProt Q9NZQ7 19-238); test: competition ELISA, PD-1 coated, biotinylated PD-L1 in solution, with HSA
T4 construct: also called hPDL1; hPDL1 ECD

[5] = molecular target: T1, human PD-L1 expressed on cells; test: cell-based or functional assay; remark: listed apart in the source
[6] = molecular target: T1, human PD-L1 expressed on cells; test: cell-based or functional assay; remark: listed apart in the source
[7] = molecular target: human CD137-Fc chimeric protein (human) (UniProt Q07011); test: SPR Biacore T200, CD137-Fc captured by anti-human Fc
[8] = molecular target: T5, human PD-L1-Fc chimeric protein (human, UniProt Q9NZQ7 19-238); test: SPR Biacore T200, PD-L1-Fc captured by anti-human Fc
T5 construct: not shown: Fc part, captured by an anti-human IgG Fc antibody

[9] = molecular target: T1, human PD-L1 expressed on cells; test: cell-based or functional assay; remark: listed apart in the source

Sequence of human CD137-Fc chimeric protein (human) (Q07011 24-186 limits assumed, change not shown): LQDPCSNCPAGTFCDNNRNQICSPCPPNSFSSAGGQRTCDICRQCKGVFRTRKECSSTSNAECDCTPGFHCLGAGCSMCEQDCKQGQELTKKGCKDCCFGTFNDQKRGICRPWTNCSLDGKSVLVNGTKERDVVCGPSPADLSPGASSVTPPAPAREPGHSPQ
T2 sequence (P07724 25-608 limits assumed): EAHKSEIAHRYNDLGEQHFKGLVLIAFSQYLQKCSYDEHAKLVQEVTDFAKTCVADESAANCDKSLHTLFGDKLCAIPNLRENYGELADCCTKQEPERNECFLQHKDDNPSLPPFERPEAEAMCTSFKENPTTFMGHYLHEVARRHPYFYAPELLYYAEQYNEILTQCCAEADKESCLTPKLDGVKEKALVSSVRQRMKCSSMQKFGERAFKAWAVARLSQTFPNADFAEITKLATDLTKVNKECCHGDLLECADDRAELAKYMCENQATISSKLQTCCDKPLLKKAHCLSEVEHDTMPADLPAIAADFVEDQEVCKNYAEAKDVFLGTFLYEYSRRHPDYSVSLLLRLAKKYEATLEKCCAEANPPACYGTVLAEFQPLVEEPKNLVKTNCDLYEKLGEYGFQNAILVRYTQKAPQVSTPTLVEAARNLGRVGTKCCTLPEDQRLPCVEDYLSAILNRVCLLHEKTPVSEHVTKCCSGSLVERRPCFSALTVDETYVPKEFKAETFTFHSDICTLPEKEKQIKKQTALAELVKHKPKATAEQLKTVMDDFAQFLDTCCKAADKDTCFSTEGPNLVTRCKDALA

IC50 (ng/ml), NF-AT Potency assay, with HSA [1]: 665 ng/mL
binding result [2]: binds
binding result [3]: binds
fold higher IC50 in presence of human serum albumin [4]: ~2 fold
B1: PRO1057 (other)
chain: DIQMTQSPSSLSASVGDRVTITCQASQSINDYLAWYQQKPGKAPKLLIYKASTLASGVPSRFSGSGSGTDFTLTISSLQPEDFATYYCQQGYIITDIDNVFGTGTKVTVLGGGGGSQVQLQESGPGLVKPSETLSLTCKVSGFSFSNSYWICWIRQPPGKGLEWIGCTFVGSSDSTYYANWAKGRVTISVDSSKNQFSLKLSSVTAADTAVYYCARHPSDAVYGYANNLWGQGTLVTVSSGGGGSGGGGSGGGGSGGGGSIQMTQSPSSLSASVGDRVTITCQASQSINNVLAWYQQKPGKAPKLLIYRASTLASGVPSRFSGSGSGTDFTLTISSLQPEDFATYYCQSSYGNYGDFGTGTKVTVLGGGGGSQVQLQESGPGLVKPSETLSLTCKVSGFSFSSGYDMCWIRQPPGKGLEWIGCVVAGSVDITYYASWAKGRVTISVDSSKNQFSLKLSSVTAADTAVYYCARKDAYSDAFNLWGQGTLVTVSSGGGGSGGGGSVVMTQSPSSLSASVGDRVTITCQASQIISSRSAWYQQKPGQPPKLLIYQASKLASGVPSRFSGSGSGTDFTLTISSLQPEDFATYYCQCTYIDSNFGAFGGGTKLTVLGGGGGSGGGGSGGGGSGGGGSEVQLVESGGGLVQPGGSLRLSCAASGFSFSSSYWICWVRQAPGKGLEWVGCVFTGDGTTYYASWAKGRFTISRDNSKNTVYLQMNSLRAEDTATYFCARPVSVYYYGMDLWGQGTLVTVSS
notes: also called 38_02_A04 sc01 scDb-i/33-03-G02 sc01 scDb-o/mxr HSA (23-13-A01-sc03, sk17sh4)

IC50 (ng/ml), NF-AT Potency assay [1]: 11.1 ng/mL
EC50 in ng/ml of IL-2 secretion, PBMC assay using SEA stimulation [5]: 40.9 ng/mL
B2: PRO997 (scFv)
scFv: DIQMTQSPSSLSASVGDRVTITCQASQSIGTYLAWYQQKPGKAPKLLIYRAFILASGVPSRFSGSGSGTDFTLTISSLQPEDFATYYCQSNFYSDSTTIGPNAFGTGTKVTVLGGGGGSGGGGSGGGGSGGGGSQVQLQESGPGLVKPSETLSLTCKVSGFSFNSDYWIYWIRQPPGKGLEWIGSIYGGSSGNTQYASWAQGRVTISVDSSKNQFSLKLSSVTAADTAVYYCARGYVDYGGATDLWGQGTLVTVSS

IC50 (ng/ml), NF-AT Potency assay [1]: 137 ng/mL
EC50 (ng/ml) of IL-2 secretion, PBMC with CHO cells expressing PD-L1; 1 ug/ml anti-CD3, 50000 CHO cells/well [6]: 12.8 ng/mL
EC50 (ng/ml) of IL-2 secretion, PBMC with CHO cells expressing PD-L1; 1 ug/ml anti-CD3, 100000 CHO cells/well [6]: 86.2 ng/mL
EC50 (ng/ml) of IL-2 secretion, PBMC with CHO cells expressing PD-L1; 1 ug/ml anti-CD3, 200000 CHO cells/well [6]: 80.6 ng/mL
EC50 (ng/ml) of IL-2 secretion, PBMC with CHO cells expressing PD-L1; 2 ug/ml anti-CD3, 50000 CHO cells/well [6]: 52 ng/mL
EC50 (ng/ml) of IL-2 secretion, PBMC with CHO cells expressing PD-L1; 2 ug/ml anti-CD3, 100000 CHO cells/well [6]: 41.9 ng/mL
EC50 (ng/ml) of IL-2 secretion, PBMC with CHO cells expressing PD-L1; 2 ug/ml anti-CD3, 200000 CHO cells/well [6]: 30.1 ng/mL
EC50 in ng/ml of IL-2 secretion, PBMC assay using SEA stimulation [5]: 39.9 ng/mL
B3: PRO885 (bispecific antibody)
chain: DIQMTQSPSSLSASVGDRVTITCQASQSINDYLAWYQQKPGKAPKLLIYKASTLASGVPSRFSGSGSGTDFTLTISSLQPEDFATYYCQQGYIITDIDNVFGTGTKVTVLGGGGGSQVQLQESGPGLVKPSETLSLTCKVSGFSFSNSYWICWIRQPPGKGLEWIGCTFVGSSDSTYYANWAKGRVTISVDSSKNQFSLKLSSVTAADTAVYYCARHPSDAVYGYANNLWGQGTLVTVSSGGGGSGGGGSGGGGSGGGGSIQMTQSPSSLSASVGDRVTITCQASQSINNVLAWYQQKPGKAPKLLIYRASTLASGVPSRFSGSGSGTDFTLTISSLQPEDFATYYCQSSYGNYGDFGTGTKVTVLGGGGGSQVQLQESGPGLVKPSETLSLTCKVSGFSFSSGYDMCWIRQPPGKGLEWIGCVVAGSVDITYYASWAKGRVTISVDSSKNQFSLKLSSVTAADTAVYYCARKDAYSDAFNLWGQGTLVTVSS

fold improvement of affinity compared to PRO885 [7]: > 200 fold
binding result [8]: binds
B4: PRO1124 (bispecific antibody)
chain: B3 chain with V140A, I154V, V190K, F197V, Y213F, I261L, A302P
notes: also called 38-02-A04 sc06 Full scDb-i/33_03_G02 sc01 scDb-o

IC50, NFAT reporter gene assay [9]: 0.0481 µg/mL
fold improvement of neutralization potency against PRO885 [9]: 3 fold
fold improvement in affinity compared to the CDR graft (PRO885) [8]: 20 fold
B5: PRO1126 (bispecific antibody)
chain: B3 chain with I2F, M4L, A43S, V374S, V396A, I410V, G422A, V446K, F453V, Y469F
